Results published in a protein production outcome set (Wang et al. 2014).

Test: label from the status in PepcDB records
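Further: failed if final PepcDB status was selected cloned or expressed and not failed if soluble or beyond.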

Question: Which protein production does the source give for “MTIGEIIDCLNRRESIAIIAKRLEISPYTLSKKLRLIGYEYDGEQKKRIFVGDGEEPRHLQLQEATALQYAKTDYQLLIYEQLQSIYELLRKREEVIVPIMNISTEKKKRTFSINKEILAKLDVISESKGIQKSKLVEEALQQFLQQYDFNNTSHFDN” here?
Answer: Its protein production is “failed”.

Question: Which protein production does the source give for “MTEEAAAQQTPVPGMTGPRRAAVGFIFITIALDMLSLGMILPILPKLIESFSDDNTANAARIYGLFGTAWALMQLFASPILGGLSDRFGRRPVILLSNLGLGLDYVLMALAPSLWWLFVGRVISGITSASISTSFAYIADVTPAEKRAAVFGMVGAAFGLGFTFGPAIGGLLGGVDPRLPFWVAAALSLANTLYGLFVLPESLPRDRRSPFRWKSANPIGAVRLLSSNARLAALAVVEFCAEVAHVALPATFVLYTGYRYAWDQTTIGLALAFVGVCTTIVQGGLVGPAVKLLGERNAQIIGYGGGALGFLIYALAPSGTLFWIGIPVMTLWGIAGPATSGMMTRLVSPSQQGQLQGATTSVKSVAELIGPFLFTMIFAYFIDAGAPLQLPGAPFLLAGALLVVSVVIVAFASPAADSKQAPQAAPES” here?
Answer: The protein production was “failed”.

Question: With “MSTGQAPEKSNFSQRCSLLSRYLKEKGSFGNINMGLARKSDLELAGKFDLKGQQNVIKKVETSETRPFKLIQKFSIGEASTSTEDKAIYIDLSEPAKVAPESGNSQLTIFFGGKVMVFNEFPEDKAKEIMEVAKEANHVAVDSKNSQSHMNLDKSNVVIPDLNEPTSSGNNEDQETGQQHQVVERIARRASLHRFFAKRKDRAVARAPYQVNQHGSHLPPKPEMVAPSIKSGQSSQHIATPPKPKAHNHMPMEVDKKEGQSSKNLELKL” as the sequence, how does the protein production read?
Answer: The protein production was “failed”.

Question: With “MFQPVTQKRLTNVSVVRMRKGGKRFEIACYPNMVMAYREGHVRDLDEVIQVEDVFENVSKGKLAANADLERCFGTRDRHAVLLQILLHGDLQVSDRERQYQSTRKLHEIASVVAAKTISRETKKPLPVGLIEKALREIHFAVQPNRPAKAQALEVIPLLRAQSGLDLERARLRLRIHVPSQRDAKAVKARLEPLQQGETDGTHSSSRSDSVRMKDGSAAVESESEEWLPGGALLWTVQADPGAFREIEEIVQRETNQQGIVEVASLRVLDDEDESILS” as the sequence, how does the protein production read?
Answer: The protein production was “failed”.

Question: Which protein production does the source give for “MEWKLERTAPRRVRTEEEMLWESIMRVLSKDLKQKRSQDSANVLDSVNATYSDFKSNFAKRLSAEVPVASSPITTRWQQSQTRALSSDSFGEEQSTTYLPEASGSVLKTPPEKETLTLGSCKEQLKTPSKGISETSNSALHFCKAPHAMDRDWKESVASKGQKCLKQLFVTQNVVQQANGKMQLCEQSECVWKGCKDGVRDESFHLKSSGDINDSILQPEVKIHITGLRNDYYLNILDWSFQNLVAIALGSAVYIWNGENHNGIENIDLSLTCNYISSVSWIKEGTCLAVGTSEGEVQLWDVVTKKRLRNMLGHLSVVGALSWNHFILSSGSRLGRVYHHDVRVAQHHVGTLRHKQAVCALKWSPDGRLLSSGCSDGLLTIWPHDPGASAQGQPLKVITQSTAVKAMDWCPWQSGVLAIGGGMKDGRLHILDINAGKSIQTPSTNSQICSLIWLPKTKEIATGQGTPKNDVTVWTCPTVSRSGGFFGHRGRVLHLALSPDQTWVFSAAADGTASVWNCY” here?
Answer: The protein production was “failed”.

Question: Which protein production does the source give for “MKLKKEKKMAEFTFEIEEHLLTLSENEKGWTKEINRVSFNGAPAKFDIRAWSPDHTKMGKGITLSNEEFQTMVDAFKGNLEHHHHHH” here?
Answer: Its protein production is “not failed”.

Question: For “AQAALEASEEKFAKAFHSSPDSITITEIESGRYVEVNDGFCRLTGFSAREVLGRTAHEIGIWTDTVQREFMIDELRQKGRMHHREMNGRDKKGAPLVLDVSVEFITLNNTACLLMNARDIG”, which protein production is on record?
Answer: The protein production was “failed”.

Question: For “APAEPAAPKSGEAETPPKHPGVLKVEAILEKVQGLEQAVDSFEGKKTDKKYLMIEEYLTKELLALDSVDPEGRADVRQARRDGVRKVQTILEKLEQKA”, which protein production is on record?
Answer: The protein production was “not failed”.

Question: With “MLTIDTASRTFHCKTWVTGQTQGKAVIARERISFWGGFDPQTGRIVDPYSSLRGRDISDCVLILLSSKGSSGTSGMLSLATRAGHAPAAMIQVEMDPVTVMGCLVNNIPLLQATGFDPFEQIQDGDLVRIDGENGTITLAPGQALEHHHHHH” as the sequence, how does the protein production read?
Answer: Its protein production is “not failed”.

Question: With “SSTFSASDFNSERYSSSRPSYPSDFYKMIDEYHDGERKLLVDVGCGPGTATLQMAQELKPFEQIIGSDLSATMIKTAEVIKEGSPDTYKNVSFKISSSDDFKFLGADSVDKQKIDMITAVECAHWFDFEKFQRSAYANLRKDGTIAIWGYADPIFPDYPEFDDLMIEVPYGKQGLGPYWEQPGRSRLRNMLKDSHLDPELFHDIQVSYFCAEDVRDKVKLHQHTKKPLLIRKQVTLVEFADYVRTWSAYHQWKQDPKNKDKEDVADWFIKESLRRRPELSTNTKIEVVWNTFYKLGKRV” as the sequence, how does the protein production read?
Answer: The protein production was “not failed”.

Question: With “MTINWIQAAILGLFACLCSNSCMAGQAVGNYTIGRPLVGGLVCGIILGDLKLGIACGVAMQLVYIALVTPGGTVSADVRAISYIGIPLAMVAISTKGLDPLGGSAADLAKSVGTLVGTIGTVLFYSVAALNLVWQSFGWKDIKKGKLDHLYAINFGWPWISHLLFSFLPTVILTYFGATAVTAMRDALPMDGLAMKTLFTVGGMLPCVGIAILLRQIVNKNIDFVPFFVGFTLAASLKLNLVSITIIALLFAVIFYKIALIKNNTKLVDSTGSLTNDDEEEDI” as the sequence, how does the protein production read?
Answer: Its protein production is “failed”.

Question: With “MNERPATIEELICAAEARLRADPTQVKTVIEDLAHLEAQGYPAGPATVLIFDGNARVMSGDFAGARPVLEKGLALSTELEEPTLQVRALTGLAVLHVGTGAYGQALEYHMQSMQLARTLENGGLLSRSLIYVGSLYAALRNFEQAQAYHREAVEHAASAGRSTFMARLALATDEAQLGHLEEALQQRRELLVEARQTASRAEEAFVLADLAANLLQLDQRAEARQLASEALKRAEALGLQLEKGQALIILASLDIREGQFESAHQALHEVLEIGQRLASIQLLIPVHEELSRLFEQQGDFAGALRHTRVHYELKSSELTRLAERRSQVLEAELKVELLRQQAEEKERQNLALVAINEHLRETQKRLQYAATHDALTGLLVRTALEETVEDDLLLSPERRRALFMIDVDHFKQINDALGHHVGDRFLQELARRLRGALRPTDIVARQGGDEFTIYLRELDSPEEAVALGQQLLRDIAAPVQVEGHLLNVTVSIGIAVYPDDGRDVMTLEKHADLALYRAKEQRHQVCRFQKPAD” as the sequence, how does the protein production read?
Answer: Its protein production is “failed”.

Question: With “MSLTKLYYEDQYIKEFKGEIIEVKEIDGKFHVLLDQTAFFPGGGGQMGDLGLIDGIKVLDVYEEEGKVYHVLEKEPKKLKNLQCELDWERRFDGMQQHLGQHLLSGCFYDLFGANTCGFHLGKEISTVDIVGFLDEKTIREAEKEANRLIFENLEVKSYAPSKKELKKVKTRRALPKTDEEIRIVEIVGLDLNACCGVHPRNTRDLQVIKIRRWEKHKNATRIEYVAGNRAVSEGHHHHHH” as the sequence, how does the protein production read?
Answer: Its protein production is “not failed”.

Question: With “MSRRYWQLDVFAERPLTGNGLAVFDDASALDDAAMQAWTRELRQFESIFLLPGDDPRAFRARIFTLEEELPFAGHPLLGAAALLHHLRGGDNEQHWTLHLASKSVALRSVRAGSGFYAEMDQGRAEFGATPDAGTCRWFAEAFSLSANDLSGHPPRVVSTGLPYLLLPVTAEALGRARQVNDLQEALDKLGAAFVYLLDVDGREGRTWDNLGLVEDVATGSAAGPVAAYLVEYGLAARGEPFVLHQGRFLERPSRLDVQVATDGSVRVGGHVQLLARAELLTSA” as the sequence, how does the protein production read?
Answer: Its protein production is “not failed”.

Question: Which protein production does the source give for “MIPMEELKVKKITNGTVIDHIDAGKALMVFKVLNVPKETSVMIAINVPSKKKGKKDILKIEGIELKKEDVDKISLISPDVTINIIRNGKVVEKLKPQIPDEIEGTLKCTNPNCITNKEKVRGKFKIESKNPLKIRCYYCEKFLNEVIFE” here?
Answer: Its protein production is “not failed”.

Question: For “MAEARRDGRLPLTLVGGFLGAGKSTWLRHQLHAGRFARHHLLVNEAAETPVDNLLLGGAARLTLLAGGCACCEGQAQLRAALRAICETESGPEAGGIEGILLETSGLADPGAIAAMVAADPVLVRRLALAETLVLVDAAHGTAQLAAEPLARAQIEAAGRLVLTKPAAAPDLARLAATLRALAPEAELSAAERGVPVPLPAGAAEPYPLPPLAAAAPIRPHRLRIGAEGGWVALSTWLSALLQARGEDVVRVKGVVRTPAGRLLLQSVRRMVQPPETLPEGADLPGPAPPPRRERSC”, which protein production is on record?
Answer: The protein production was “failed”.

Question: Which protein production does the source give for “MNEKKEQALFEYDAKLSISEAIPMGLQHVVAAVVGIVTPGIMIAKVCQLSPSDTTILIQTSLIFSAVATLIQLFPIFGKVGSRLPVMMGASFAYVPILMAIGADFGIAAIFGSQLVGSILVIIVGLFIKKIRVLFPPLVTGTVILSIGLSLFPVAIKYMAGGAGSADFGSARNWLVALLTFAIVFYFNYFAKGFLKLSAILNGMVIGYLISLALGMVSFEPVQNAKIVQVITPFHFGLDFQLVPIFTLVVMFIVDAVQAIGQFTATTVGAMDRDATDEELSGGIMGSGFTNFIGSLFGSIPVATFGQNVGLVTVTKVINKYVLVFASVILLIAGFVPKVAALLTTIPYAVIGGATISVFASISMTGIRMIASQEMTPRNTGVVGTALAFGIGVTLSTGSLAGFPTWVTTIFGNSEVILTTLVAVLLNVILKPKKRVALE” here?
Answer: The protein production was “not failed”.

Question: Which protein production does the source give for “MFKGLRYLTFVFGGLLGILLAYGFGQVVELELSKFAVISIYSIFAIIFGIIFYLLFPVILKKLTVNFENMIKKAQKTPTSDIVTAIIGLIVGLIIAFLISLPISNIKFPVIGNLLSATITIFIYCALGFIGIKIAVDKKEEILKFKLFSREKSFKKGHVYPKILDTSVIIDGRIYDIIKTGFLEGPIIIAMFMVKELQYIADSEDPNRRQRGRRGLDILDLLQNEKNIEIKIVDKDYKNIKEVDHKLLKLTEDYHGKLITNDYNLNKVASLQKISILNINELALAVKPVVIQGEKLIVEVINRGKEPEQGLGYLSDGTMIVVEDGKDYIGQTIETTVTSILQTPAGKMIFTRKNLK” here?
Answer: The protein production was “failed”.

Question: With “MEKFTVSKRHWLLLWGLQLGLAGGAAPVFSQAVLPYTPNLDQQQLEDQGLALTEDVVQLVRFQQYDLAFPRAKLATQLAPEQFQTWFILGTLYLQQEEVEPGITVLKKAEALAPEEAGIKFTLGNAYFQKGQYDQAVEVLLAGLAQRPDTPAALFDLGNAYLKLVKYPDAVTAYQKALKAEEQFWPALNNIGLIEYEQGKIDTALKRWQEVIKIDSEQPEPQLAIAVALYKQGKTEEGLRKAQDALNLDSRYGEIDFLVKNLWGEQLIADTKALFATPTMVEVLRTLPPPSDDL” as the sequence, how does the protein production read?
Answer: Its protein production is “failed”.

Question: For “MKIRILGSGTSTGVPEIGCTCAVCTSKDPRDCRLRTSALVYTDDATILLDCGPDFREQMLRVPFGKIDAVLISHEHYDHVGGLDDLRPFCRFGEVPIYAETYTAERLRSRMPYCFVEHSYPGVPNIPLREIEPNRPFLVNHTEVLPLRVMHGKLPILGYRIGKLGYITDMLTMPDESFEQLQGIEVLVMNALRIAPHNTHQSLSEALEAVKRIGAKETWLIHMSHHIGLQADVEKQLPPHVHFAFDGLELECLEHHHHHH”, which protein production is on record?
Answer: The protein production was “failed”.

Question: With “MEKKANHGDDVQESVPIIHSQVVKIKREFEKIQHPSLKQPEMPLVFREIMGPRRSRSPLGLGERERSIPVGN” as the sequence, how does the protein production read?
Answer: Its protein production is “failed”.

Question: Which protein production does the source give for “MAMYIRVKRMKTTYFIQCDPTETVLDVKQKLFALIEQPVNNQRLVLMSTEEVLEDSKSLADQKVENDAVVALTLKKD” here?
Answer: Its protein production is “not failed”.

Question: With “MLVSPDTPRFLAARLLLGAWLACGAGAQAQTLLDTSAAIGVQNTLNQIQPGVTQVPGSLSVQFDACKMAPESCKDGQPIGAAPAPATSGQSAQNAQSAQPAPSQVAPAAPTTPTQTTPTPAGEAPATRPVPTVVPLTAEQQQLLQAAQAQFAAGRYPQARNEFEALIVRNYNNPEPHFGLGLALYQLGDLRGATFEFGQFMQFAPQRYEGPYNLGVIATREGRYPDALRLYGEALTLAQSAPPAARQVLLRALATEQGRVKDYVALAATYADLRAADPENVEYIFRHAQALYQAGQVADALPVTYAVLERKPSSLQAALLLADLYVAQGLPDRAVRELSAAAARVLTGTDRATLLLRQSDLLLAQNNLRGALNAASEARQEDRRLPAAIIREAELLAQFGQRPAAVRAYRDALALTPKSAPIQAALAALYLEGNQYPEAAQAAQQALKLTPDASTRARALYVQGVVAYRQGQYTQARTALNSSVLAVPDADSLLWLGLSYYALKDYASAVPVLSESVRLRPTPAARQNLAAALLATARYAEAEALLRGLVTDEVKNAEGWYLLGLSQRAQQRPDDARQSFKTAAGLGSARAKDALK” as the sequence, how does the protein production read?
Answer: The protein production was “failed”.
